The record followed here is article PMC11414720, “Molecular basis of TMED9 oligomerization and entrapment of misfolded protein cargo in the early secretory pathway” (Science Advances, 2024).

Data set [1] deals with the molecule itself. The data set is described as follows: SEC; gel filtration of overexpressed protein in octyl-β-glucoside, a harsher detergent.
Data set [2] deals with the molecule itself. The data set is described as follows: mass photometry; Refeyn TwoMP; samples in 0.003% LMNG, 0.0003% CHS diluted from 7 μM into 25 mM Hepes pH 7.4, 150 mM KCl, 1 mM DTT, measured within 10 s.
Data set [3] deals with the molecule itself. Briefly: cryo-EM structure; purified TMED9 at 1.7 mg/ml in 20 mM tris pH 8.0, 150 mM NaCl, 0.02% LMNG+CHS; octamer refined with C2 symmetry, dodecamer with no symmetry.
Data set [4] concerns the molecule itself. Briefly: SEC; Superose 6 gel filtration of TMED9 purified on anti-FLAG resin in LMNG+CHS (20 mM tris pH 8.0, 150 mM NaCl); solubilization by digitonin or glyco-diosgenin gave a similar size distribution.

“And” between values parts separate entries of the source, which are not always exact repeats. Identical values can stand only once.

B1: full-length human TMED9 (transmembrane emp24 domain 9), FLAG-tagged (receptor, UniProt Q9BVK6 38-235, looked up)
chain: LYFHIGETEKKCFIEEIPDETMVIGNYRTQLYDKQREEYQPATPGLGMFVEVKDPEDKVILARQYGSEGRFTFTSHTPGEHQICLHSNSTKFSLFAGGMLRVHLDIQVGEHANDYAEIAAKDKLSELQLRVRQLVEQVEQIQKEQNYQRWREERFRQTSESTNQRVLWWSILQTLILVAIGVWQMRHLKSFFEAKKLV
notes: TMED9 (transmembrane emp24 domain 9), human, full length; Seen as octamer, dodecamer and higher-order oligomers; the rows are of the chain with itself; TMED9 has a signal peptide; No cleavage of the tag is described; also called WT TMED9; recombinant TMED9; source: Expi293F, transiently transfected, purified in LMNG+CHS (anti-FLAG resin, Superose 6 gel filtration); not shown: FLAG, N-terminal, …
As for B1, the “stoichiometry N” value is 2 in data set [1]; at least 8 in data set [2]; 8 and 12 in data set [3].

B2: TMED9 R191E (receptor, human, UniProt Q9BVK6 38-235, looked up)
chain: LYFHIGETEKKCFIEEIPDETMVIGNYRTQLYDKQREEYQPATPGLGMFVEVKDPEDKVILARQYGSEGRFTFTSHTPGEHQICLHSNSTKFSLFAGGMLRVHLDIQVGEHANDYAEIAAKDKLSELQLRVRQLVEQVEQIQKEQNYQRWREEEFRQTSESTNQRVLWWSILQTLILVAIGVWQMRHLKSFFEAKKLV
notes: TMED9, human, mutant of the full-length protein; also called CC interface mutation R191E
Regarding B2, in data set [4], the binding result is on record as “binds”.

B3: TMED9 W205A (receptor, human, UniProt Q9BVK6 38-235, looked up)
chain: LYFHIGETEKKCFIEEIPDETMVIGNYRTQLYDKQREEYQPATPGLGMFVEVKDPEDKVILARQYGSEGRFTFTSHTPGEHQICLHSNSTKFSLFAGGMLRVHLDIQVGEHANDYAEIAAKDKLSELQLRVRQLVEQVEQIQKEQNYQRWREERFRQTSESTNQRVLAWSILQTLILVAIGVWQMRHLKSFFEAKKLV
notes: TMED9, human, mutant of the full-length protein; also called CC interface mutation W205A
Take B3: the binding result in data set [4] is recorded as “binds”.

B4: TMED9 R223E (for gel filtration and mass photometry) (receptor, human, UniProt Q9BVK6 38-235, looked up)
chain: LYFHIGETEKKCFIEEIPDETMVIGNYRTQLYDKQREEYQPATPGLGMFVEVKDPEDKVILARQYGSEGRFTFTSHTPGEHQICLHSNSTKFSLFAGGMLRVHLDIQVGEHANDYAEIAAKDKLSELQLRVRQLVEQVEQIQKEQNYQRWREERFRQTSESTNQRVLWWSILQTLILVAIGVWQMEHLKSFFEAKKLV
notes: TMED9, human, mutant of the full-length protein
On to B4, for which, in data set [2], the binding result is “binds”.

B5: TMED9 E190R (receptor, human, UniProt Q9BVK6 38-235, looked up)
chain: LYFHIGETEKKCFIEEIPDETMVIGNYRTQLYDKQREEYQPATPGLGMFVEVKDPEDKVILARQYGSEGRFTFTSHTPGEHQICLHSNSTKFSLFAGGMLRVHLDIQVGEHANDYAEIAAKDKLSELQLRVRQLVEQVEQIQKEQNYQRWRERRFRQTSESTNQRVLWWSILQTLILVAIGVWQMRHLKSFFEAKKLV
notes: TMED9, human, mutant of the full-length protein; also called CC domain mutation E190R
For the protein B5, the binding result in data set [2] is “binds”.

B6: TMED9 Q177A (receptor, human, UniProt Q9BVK6 38-235, looked up)
chain: LYFHIGETEKKCFIEEIPDETMVIGNYRTQLYDKQREEYQPATPGLGMFVEVKDPEDKVILARQYGSEGRFTFTSHTPGEHQICLHSNSTKFSLFAGGMLRVHLDIQVGEHANDYAEIAAKDKLSELQLRVRQLVEQVEAIQKEQNYQRWREERFRQTSESTNQRVLWWSILQTLILVAIGVWQMRHLKSFFEAKKLV
notes: TMED9, human, mutant of the full-length protein; also called CC interface mutation Q177A
For B6, the binding result in data set [4] is “binds”.
